103 substances from the supplement of paper PMC12042874 can be followed below.

This data set in a line: amyloid nucleation score (Sup35N fusion, yeast selection) (log enrichment); library NNK1; higher = more nucleation; inactive = no reads after selection. The method, boiled down: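 Growth for 7 days at 30°C on medium lacking adenine and uracil followed a 24-hour induction with 100 μM copper sulfate of psi-negative yeast expressing peptides of 20 random codons fused to Sup35N. Input and output plasmid inserts were sequenced with Illumina, and sequences with under 100 input reads were excluded. Nucleation score is the DiMSum log enrichment of output over input reads, centred on the mode score of non-aggregating sequences.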

± gives the uncertainty stated by the source.

LIKLLRVKRMYASYLFSNKV registered an amyloid nucleation score of -1.33 ± 1.6.

Turning to CHWLNVYSCFSYVVTYDWSN, the amyloid nucleation score is 6.044 ± 0.056.

LGYIEKFWVGGHYLFLPTIY came in with an amyloid nucleation score of 0.073 ± 1.5.

In turn, PYFLNCRPLRA came in with an amyloid nucleation score of 0.815 ± 0.52.

As to LLEALQNLGRLLITTPLVV, the amyloid nucleation score is 0.475 ± 0.84.

Turning to DAMRGLPFYQYMHHMGNGYW, the amyloid nucleation score was -0.083 ± 1.4.

GRMTILSVNSS showed an amyloid nucleation score of 0.328 ± 0.46.

As for MYHLSGVSYMFSLCSDCRRL, the amyloid nucleation score came to 8.122 ± 0.066.

With NGKGFNDVVKLRSGRRWGVR, the amyloid nucleation score is -0.111 ± 1.4.

For FERCLNPGYCINFAGCESVV, the amyloid nucleation score is 0.581 ± 0.51.

As for FTRKLPSFVLL, the amyloid nucleation score turned out to be 0.392 ± 0.61.

On to YGGLGYSLIGCYADLDGVIL, for which the amyloid nucleation score came to 1.47 ± 0.39.

RNFWF yielded an amyloid nucleation score of 0.078 ± 0.34.

As to GESHPFNVFRYCL, the amyloid nucleation score is 1.42 ± 0.14.

Turning to DYFLCKFSTDDPCLVFISWE, the amyloid nucleation score entry is “inactive”.

As for HEKVV, the amyloid nucleation score stood at 0.292 ± 0.32.

In turn, DCGDNRLTTEGQKSSSPVAD registered an amyloid nucleation score of 0.378 ± 0.3.

In the case of TRRFR, the amyloid nucleation score is -0.181 ± 0.41.

Regarding TIKEGSLITTDAKYLMGMMK, the amyloid nucleation score was 2.03 ± 0.19.

For the substance RNKSGSGYKLFVSGELAQQM, the amyloid nucleation score entry is “inactive”.

AMFAMLNDRGRLGACYLVGK had an amyloid nucleation score of 1.55 ± 0.78.

The substance RSCSNRIIKCNLSHVMFY had an amyloid nucleation score of 4.45 ± 0.052.

PFRSFLCRVIRALGLY: the amyloid nucleation score came to 0.212 ± 0.95.

With AYVASFTSIRCRAHHAPLSK, the amyloid nucleation score is -0.366 ± 0.3.

Substance LLDKTTVKVILCLFNDTINL came in with an amyloid nucleation score of 7.855 ± 0.043.

For GRDSIRCLNTTEASKLYGGL, the amyloid nucleation score amounted to 0.609 ± 0.64.

On to NQTNFDVSLY, for which the amyloid nucleation score came out at 4.64 ± 0.055.

Regarding ADCPLCGTYNLSYCMVRLDI, the amyloid nucleation score was 0.349 ± 0.28.

On to LIFVKDVTLVMHGEERYRRS, for which the amyloid nucleation score is 5.508 ± 0.049.

With DANNIRLDDSFELRWCKNVC, the amyloid nucleation score is -1.36 ± 0.91.

The substance AFGADKTRYMSVFTKCVS displayed an amyloid nucleation score of 0.253 ± 0.37.

In turn, SCKFMIYNSVGAGSLGHVNR yielded an amyloid nucleation score of 4.69 ± 0.094.

For GGVLLRCRTSDNTGNQRVW, the amyloid nucleation score entry was “inactive”.

On to GMMHFGCGFSFWWNNFRQWW, for which the amyloid nucleation score is 2.49 ± 0.19.

Substance NNYLCAEWFVTGVSTPLTTS had an amyloid nucleation score of 0.735 ± 0.55.

Substance QYYFLLYAKSDLSKWEHHQD showed an amyloid nucleation score of -0.282 ± 0.97.

In turn, SYGMSYSVVWNWCECNSA displayed an amyloid nucleation score of 5.23 ± 0.053.

In turn, QAFFVFC registered an amyloid nucleation score of 1.3 ± 0.36.

Consider TSFGYLLVSRNWCNSWCIMS, for which the amyloid nucleation score was found to be 3.01 ± 0.079.

Consider SNEVYWQ, for which the amyloid nucleation score stood at 1.25 ± 0.3.

Regarding DGASMSKRPPRVILKLGIFD, the amyloid nucleation score was 0.054 ± 0.33.

DMIDSGGNALHSSQAHNYRR gave an amyloid nucleation score of 1.08 ± 0.37.

Consider SWDLGREYSGHRMTCLVWLV, for which the amyloid nucleation score was -0.403 ± 0.68.

IIEFML: the amyloid nucleation score entry was “inactive”.

DSTRTDSLYVSACHLLYLAE gave an amyloid nucleation score of 0.178 ± 0.64.

For the substance FANLVYGQLRVNDTLVSCT, the amyloid nucleation score was -0.044 ± 0.33.

Turning to CCQYSWSNVMSVRKLSAWLH, the amyloid nucleation score was found to be 0.04 ± 0.34.

MLSVSWFAVAMVYMGMNNTC: the amyloid nucleation score amounted to 2.04 ± 0.48.

RKNFMGSEFVLDNILCLFLL displayed an amyloid nucleation score of 7.583 ± 0.055.

Turning to TKLKNWGLNLGMASGNQSDR, the amyloid nucleation score is -0.725 ± 0.45.

Take GSELCGVGARSQDSRIAGRV: the amyloid nucleation score was -0.282 ± 0.49.

VIPKGPSKTLNNFWYYAYHS had an amyloid nucleation score of -0.327 ± 0.79.

As to YILSISYYFPRGMVDIVMFM, the amyloid nucleation score came out at 0.5 ± 0.48.

In turn, RGTDLSSYTSFVC gave an amyloid nucleation score of 0.28 ± 0.41.

As for ALPYVYRTLVNNLLIPSSGL, the amyloid nucleation score worked out at 1.02 ± 0.67.

Take GSNPVVSLW: the amyloid nucleation score came out at 0.076 ± 0.44.

As to YKLRFNILASMDNRMKLKWL, the amyloid nucleation score is -0.899 ± 0.81.

Regarding FAQECLFMSVDLCLR, the amyloid nucleation score is 0.125 ± 1.1.

With RRRPGPLPRCAF, the amyloid nucleation score was found to be 1.96 ± 0.18.

For the substance LNYIQNC, the amyloid nucleation score result was “inactive”.

VNSTEGP yielded an amyloid nucleation score of -0.989 ± 2.7.

YFRIDAKTWFVSFPVALLPV gave an amyloid nucleation score of -0.557 ± 0.29.

As to HKNLQIVTFFVEYVSETPPG, the amyloid nucleation score is -1.05 ± 1.

As for TCCNDDKRYIWCIYSRAKMN, the amyloid nucleation score is -1.55 ± 0.42.

QYCKFPNIRRLRINK yielded an amyloid nucleation score of -0.393 ± 0.36.

In the case of SLSTGIAFINLAACVYSKLT, the amyloid nucleation score was 2.85 ± 0.18.

The substance SSRFDSLFVNNIMIFWVSKF displayed an amyloid nucleation score of 5.015 ± 0.048.

NCMKLLEQRGGCLQANGF showed an amyloid nucleation score of 2.09 ± 0.15.

The substance MENEWIVTSCFLFWINFYSV yielded an amyloid nucleation score of 4.23 ± 0.072.

As for HPHVMLGILGHN, the amyloid nucleation score was 0.752 ± 0.85.

YDYGVESLRLVVLCNDLWFL registered an amyloid nucleation score of -0.346 ± 0.4.

In turn, FYISNMM gave an amyloid nucleation score of -1.35 ± 0.74.

RGEKHVRVYRVMSV showed an amyloid nucleation score of -0.192 ± 0.49.

Consider NKLTSCTVSHCL, for which the amyloid nucleation score was -0.125 ± 0.44.

Turning to NFFVSRLISQPHLGTYYAS, the amyloid nucleation score entry is “inactive”.

For GSGINVRDITFIL, the amyloid nucleation score amounted to 4.42 ± 0.071.

Substance TDWARTRSQRHVLHDSPAGL yielded an amyloid nucleation score of -0.452 ± 1.4.

For STVLATFHVE, the amyloid nucleation score turned out to be 0.041 ± 0.37.

YLYCSVSVYRFERFRRNHSR: the amyloid nucleation score was found to be 0.051 ± 0.3.

Substance SLMDKMPTIVLELVYHAVQI displayed an amyloid nucleation score of 0.018 ± 0.49.

Substance WSSKLFCIGLDLCVVDDMCF came in with an amyloid nucleation score of 2.44 ± 0.12.

LCPGFNWESFLVKMVLHFFR registered an amyloid nucleation score of -0.606 ± 0.75.

TILYVVARYF yielded an amyloid nucleation score of -0.004 ± 0.35.

With WSYAIKAISSMGAVTDASRM, the amyloid nucleation score is -0.136 ± 0.31.

For the substance PECTSVRATGIGDWWEDRGA, the amyloid nucleation score is -1.46 ± 2.7.

As for IYLNFLPVVPCRFFCIRTWG, the amyloid nucleation score entry is “inactive”.

Consider RVYLFNYICGGLDFFLRPTV, for which the amyloid nucleation score amounted to 5.37 ± 0.081.

The substance MFLNII had an amyloid nucleation score of -0.112 ± 0.74.

As for MRCISYIYEHAL, the amyloid nucleation score stood at 0.567 ± 0.66.

Take TVNGLPN: the amyloid nucleation score is 0.885 ± 0.92.

LSSDADFKNNSLFRESDKYV displayed an amyloid nucleation score of -0.297 ± 0.22.

HFKAYAFLDPFPLAPKL gave an amyloid nucleation score of 0.463 ± 0.64.

LRSEEVFTHMRAGVAKSFWD had an amyloid nucleation score of 0.461 ± 0.72.

The substance TERDCRCSFGTVPMCSMGNW displayed an amyloid nucleation score of 0.595 ± 0.34.

DYIIPMLSI had an amyloid nucleation score of 0.515 ± 0.9.

As for YYRKHFRLYIIIWDLFKI, the amyloid nucleation score worked out at 0.282 ± 0.97.

In the case of GACECDGYVTWCLRGIFGAK, the amyloid nucleation score was -1.41 ± 0.94.

In turn, SLGPFRDVSCYVVAGIQTVN came in with an amyloid nucleation score of -1.66 ± 2.7.

CAACSSQLYCEWFMNALLGM displayed an amyloid nucleation score of -0.513 ± 0.44.

Turning to FQASSLTGPH, the amyloid nucleation score was -0.574 ± 0.36.

With TSEQYESLCWVSSLRRIFQK, the amyloid nucleation score was 0.043 ± 0.48.

As to VFRWRNKLRNNLCRGKYYWT, the amyloid nucleation score came to 2.08 ± 0.43.

Consider FISPFCIVSYIIC, for which the amyloid nucleation score was 5.846 ± 0.054.
